Data taken from patent publication US20240067725A1.

Target: full-length human LAG-3 expressed on cells (human) (UniProt P18627)
Assay: cell-based or functional assay

full-length human LAG-3 expressed on cells (human), sequence (P18627 23-525 limits assumed): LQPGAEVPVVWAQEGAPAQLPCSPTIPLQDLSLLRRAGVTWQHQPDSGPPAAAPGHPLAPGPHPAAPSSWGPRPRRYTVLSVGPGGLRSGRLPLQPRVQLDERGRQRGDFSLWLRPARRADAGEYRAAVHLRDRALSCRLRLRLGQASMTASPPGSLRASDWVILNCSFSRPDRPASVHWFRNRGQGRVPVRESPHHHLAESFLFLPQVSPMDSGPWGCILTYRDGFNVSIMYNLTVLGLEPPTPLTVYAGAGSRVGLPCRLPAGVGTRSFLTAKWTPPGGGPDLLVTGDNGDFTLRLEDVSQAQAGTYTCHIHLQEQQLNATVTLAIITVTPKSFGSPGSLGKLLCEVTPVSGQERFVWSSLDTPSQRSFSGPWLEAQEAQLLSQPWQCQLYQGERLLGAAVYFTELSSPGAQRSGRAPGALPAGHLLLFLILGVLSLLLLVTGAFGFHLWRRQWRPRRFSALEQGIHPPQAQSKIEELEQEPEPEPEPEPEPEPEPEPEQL

- EC50 (nM), IL-2 luciferase reporter gene assay: 2.65 nM
B1: BMK7 (antibody, from another filing, V domains shown)
VH: QVQLVESGGGVVQPGRSLRLSCVASGFTFSSYGMHWVRQAPGKGLEWVAIIWYDGSNKYYADSVKGRFTISRDNSKNTQYLQMNSLRAEDTAVYYCASVATSGDFDYYGMDVWGQGTTVTVSS
VL: EIVLTQSPATLSLSPGERTTLSCRASQRISTYLAWYQQKPGQAPRLLIYDASKRATGIPARFSGSGSGTGFTLTISSLEPEDFAVYYCQQRSNWPLTFGGGTKVEIK
